Experimental data: patent US20260176659A1, “IMPROVED METHOD FOR THE PRODUCTION OF NATURAL VANILLIN” (BASE SE, priority 2022, published 2026)

Legend:
[1] = Bioconversion of eugenol to vanillin: one-pot concurrent cascade EUGO + alkene cleavage oxygenase (5 mM scale); format: biochemical; details: for Reaction composition at 24 hours (%) 1a / Reaction composition at 24 hours (%) 2a / Reaction composition at 24 hours (%) 3a / Reaction composition at 24 hours (%) 5a / Conversion of 1a to 3a (%): 5 mM 1a; for Conversion of 1a to 3a (%): 24 h; for Reaction composition after 24 hours 1a (%) / Reaction composition after 24 hours 2a (%) / Reaction composition after 24 hours 3a (%) / Reaction composition after 24 hours 5a (%): Table 8a, CO-XX FD-CFE 1 mg/mL; for Reaction composition after 24 hours 1a (%) / Reaction composition after 24 hours 2a (%) / Reaction composition after 24 hours 3a (%) / Reaction composition after 24 hours 5a (%) / Product distribution after 24 hours 2a (%) / Product distribution after 24 hours 3a (%) / Product distribution after 24 hours 5a (%): eugenol 5 mM; for Product distribution after 24 hours 2a (%) / Product distribution after 24 hours 3a (%) / Product distribution after 24 hours 5a (%): Table 8b, CO-0X FD-CFE 1 mg/mL
Summary of the method: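 Cell-free extracts of EUGO (0.5 mg) and cleavage oxygenase (3 mg) were combined with catalase, 1 mM FeSO4 and 1 mM ascorbate in glycine-NaOH pH 9.0 (or Tris-HCl pH 8.0). The cascade ran with 5 mM eugenol (5% ethanol/DMSO cosolvent) at 30° C and 120 rpm overnight. Methanol-quenched samples were analysed by HPLC at 280/340 nm.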

[2] = Biotransformation of isoeugenol to vanillin: pH and solvent screening; format: biochemical
Method: Stock solution of rac-isoeugenol (100 mM) was prepared in DMSO and stored at 4° C. Each reaction mixtures (1 mL) were set up as follows: rac-isoeugenol (50 μL, final concentration 5 mM) was diluted in various buffers (100 mM, pH 7.0-10.5) in 4 mL glass vials, together with FeSO4 (0.5 mM) and DMSO (150 μL; final concentration including the part from substrate stock: 20% v/v). The reaction was initiated by the addition of IECO (cell free extract 1 mg/mL). Wild type E. coli BL21 (DE3) was used as negative control. The reaction was incubated for 24 hours at 30° C. and 120 rpm (rotary shaker). To improve the oxygenation, the vials were placed horizontally. The reaction was quenched with methanol (2 vol. equiv.), centrifuged at 20238 g for 5-10 mins and analysed by HPLC.
Stock solutions of rac-isoeugenol (100 mM) were prepared in different solvents and stored in the dark at 4° C. Each reaction mixtures (1 mL) were set up as follows: ra-isoeugenol (50 μL, final concentration 5 mM) was diluted in Glycine-NaOH (100 mM, pH 9.5) in 4 mL glass vials, together with FeSO4 (0.5 mM) and the respective cosolvent (0, 50 or 150 μL; final content of cosolvent including the part from the substrate stock: 5, 10 and 20% v/v). The reaction was initiated by the addition of IECO (cell free extract 1 mg/mL). […] The reaction was quenched with methanol (2 vol. equiv.), centrifuged at 20238 g and analysed by HPLC.

[3] = EUGO 0 mg/mL, IECO fresh CFE 4 mg/mL, cosolvent DMSO 5% v/v
[4] = EUGO 0 mg/mL, IECO fresh CFE 4 mg/mL, cosolvent EtOH 5% v/v
[5] = EUGO FD-CFE 1 mg/mL (row prints 2, see doubts), IECO FD-CFE 4 mg/mL, pH 9.0, catalase 10 mg/mL
[6] = EUGO FD-CFE 1 mg/mL, IECO FD-CFE 4 mg/mL, pH 8.0, catalase 10 mg/mL
[7] = EUGO FD-CFE 1 mg/mL, IECO FD-CFE 6 mg/mL, pH 8.0, catalase 10 mg/mL
[8] = EUGO FD-CFE 1 mg/mL, IECO FD-CFE 6 mg/mL, pH 9.0, catalase 10 mg/mL
[9] = EUGO FD-CFE 2 mg/mL, IECO FD-CFE 4 mg/mL, pH 8.0, catalase 10 mg/mL
[10] = EUGO FD-CFE 2 mg/mL, IECO FD-CFE 4 mg/mL, pH 9.0, catalase 10 mg/mL
[11] = EUGO FD-CFE 2 mg/mL, IECO FD-CFE 6 mg/mL, pH 8.0, catalase 10 mg/mL
[12] = EUGO FD-CFE 2 mg/mL, IECO FD-CFE 6 mg/mL, pH 9.0, catalase 10 mg/mL
[13] = EUGO FD-CFE 5 mg/mL, IECO FD-CFE 20 mg/mL, pH 8.0, catalase 10 mg/mL
[14] = EUGO FD-CFE 5 mg/mL, IECO FD-CFE 20 mg/mL, pH 9.0, catalase 10 mg/mL
[15] = EUGO fresh CFE 1 mg/mL, IECO fresh CFE 4 mg/mL, cosolvent DMSO 5% v/v
[16] = EUGO fresh CFE 1 mg/mL, IECO fresh CFE 4 mg/mL, cosolvent EtOH 5% v/v
[17] = EUGO FD-CFE 1 mg/mL, catalase 10 mg/mL, pH 8.0
[18] = EUGO FD-CFE 1 mg/mL, catalase 10 mg/mL, pH 9.0
[19] = replicates of concurrent cascade with EUGO, pH 8.0, SD of four experiments
[20] = replicates of concurrent cascade with EUGO, pH 9.0, SD of four experiments

B1: IECO: isoeugenol cleavage oxygenase from Pseudomonas nitroreducens (GenBank: ACP17973), SEQ ID NO: 24 (protein, listed as Pseudomonas nitroreducens)
chain: MARLNRNDPQLVGTLLPTRIEADLFDLEVDGEIPKSINGTFYRNTPEPQVTPQKFHTFIDGDGMASAFHFEDGHVDFISRWVKTARFTAERLARKSLFGMYRNPYTDDTSVKGLDRTVANTSIISHHGKVLAVKEDGLPYELDPRTLETRGRFDYDGQVTSQTHTAHPKYDPETGDLLFFGSAAKGEATPDMAYYIVDKHGKVTHETWFEQPYGAFMHDFAITRNWSIFPIMPATNSLSRLKAKQPIYMWEPELGSYIGVLPRRGQGSQIRWLKAPALWVFHVVNAWEVGTKIYIDLMESEILPFPFPNSQNQPFAPEKAVPRLTRWEIDLDSSSDEIKRTRLHDFFAEMPIMDFRFALQCNRYGFMGVDDPRKPLAHQQAEKIFAYNSLGIWDNHRGDYDLWYSGEASAAQEPAFVPRSPTAAEGDGYLLTVVGRLDENRSDLVILDTQDIQSGPVATIKLPFRLRAALHGCWVPRP
- Reaction composition at 24 hours (%) 1a [1, 3]: 97%
- Reaction composition at 24 hours (%) 2a [1, 3]: 2≤ %
- Reaction composition at 24 hours (%) 3a [1, 3]: 1≤ %
- Reaction composition at 24 hours (%) 5a [1, 3]: 1≤ %
- Conversion of 1a to 3a (%) [1, 3]: 1≤ %
- Reaction composition at 24 hours (%) 1a [1, 4]: 97%
- Reaction composition at 24 hours (%) 2a [1, 4]: 2≤ %
- Reaction composition at 24 hours (%) 3a [1, 4]: 1≤ %
- Reaction composition at 24 hours (%) 5a [1, 4]: 1≤ %
- Conversion of 1a to 3a (%) [1, 4]: 1≤ %
- Reaction composition at 24 hours (%) 1a [1, 5]: 2%
- Reaction composition at 24 hours (%) 2a [1, 5]: 3%
- Reaction composition at 24 hours (%) 3a [1, 5]: 53%
- Reaction composition at 24 hours (%) 5a [1, 5]: 1≤ %
- Conversion of 1a to 3a (%) [1, 5]: 45%
- Reaction composition at 24 hours (%) 1a [1, 6]: 1%
- Reaction composition at 24 hours (%) 2a [1, 6]: 5%
- Reaction composition at 24 hours (%) 3a [1, 6]: 45%
- Reaction composition at 24 hours (%) 5a [1, 6]: 1≤ %
- Conversion of 1a to 3a (%) [1, 6]: 40%
- Reaction composition at 24 hours (%) 1a [1, 7]: 2%
- Reaction composition at 24 hours (%) 2a [1, 7]: 4%
- Reaction composition at 24 hours (%) 3a [1, 7]: 49%
- Reaction composition at 24 hours (%) 5a [1, 7]: 1%
- Conversion of 1a to 3a (%) [1, 7]: 44%
- Reaction composition at 24 hours (%) 1a [1, 8]: 3%
- Reaction composition at 24 hours (%) 2a [1, 8]: 3%
- Reaction composition at 24 hours (%) 3a [1, 8]: 59%
- Reaction composition at 24 hours (%) 5a [1, 8]: 1%
- Conversion of 1a to 3a (%) [1, 8]: 50%
- Reaction composition at 24 hours (%) 1a [1, 9]: 2%
- Reaction composition at 24 hours (%) 2a [1, 9]: 4%
- Reaction composition at 24 hours (%) 3a [1, 9]: 48%
- Reaction composition at 24 hours (%) 5a [1, 9]: 2%
- Conversion of 1a to 3a (%) [1, 9]: 40%
- Reaction composition at 24 hours (%) 1a [1, 10]: 1%
- Reaction composition at 24 hours (%) 2a [1, 10]: 4%
- Reaction composition at 24 hours (%) 3a [1, 10]: 52%
- Reaction composition at 24 hours (%) 5a [1, 10]: 2%
- Conversion of 1a to 3a (%) [1, 10]: 44%
- Reaction composition at 24 hours (%) 1a [1, 11]: 3%
- Reaction composition at 24 hours (%) 2a [1, 11]: 5%
- Reaction composition at 24 hours (%) 3a [1, 11]: 44%
- Reaction composition at 24 hours (%) 5a [1, 11]: 3%
- Conversion of 1a to 3a (%) [1, 11]: 41%
- Reaction composition at 24 hours (%) 1a [1, 12]: 3%
- Reaction composition at 24 hours (%) 2a [1, 12]: 4%
- Reaction composition at 24 hours (%) 3a [1, 12]: 50%
- Reaction composition at 24 hours (%) 5a [1, 12]: 2%
- Conversion of 1a to 3a (%) [1, 12]: 49%
- Reaction composition at 24 hours (%) 1a [1, 13]: 1≤ %
- Reaction composition at 24 hours (%) 2a [1, 13]: 27%
- Reaction composition at 24 hours (%) 3a [1, 13]: 9%
- Reaction composition at 24 hours (%) 5a [1, 13]: 6%
- Conversion of 1a to 3a (%) [1, 13]: 8%
- Reaction composition at 24 hours (%) 1a [1, 14]: 1≤ %
- Reaction composition at 24 hours (%) 2a [1, 14]: 18%
- Reaction composition at 24 hours (%) 3a [1, 14]: 15%
- Reaction composition at 24 hours (%) 5a [1, 14]: 5%
- Conversion of 1a to 3a (%) [1, 14]: 13%
- Reaction composition at 24 hours (%) 1a [1, 15]: 3%
- Reaction composition at 24 hours (%) 2a [1, 15]: 49%
- Reaction composition at 24 hours (%) 3a [1, 15]: 44 ^ %
- Reaction composition at 24 hours (%) 5a [1, 15]: 4%
- Conversion of 1a to 3a (%) [1, 15]: 42 ^ %
- Reaction composition at 24 hours (%) 1a [1, 16]: 4%
- Reaction composition at 24 hours (%) 2a [1, 16]: 5%
- Reaction composition at 24 hours (%) 3a [1, 16]: 86 ^ %
- Reaction composition at 24 hours (%) 5a [1, 16]: 5%
- Conversion of 1a to 3a (%) [1, 16]: 48 ^ %
- Reaction composition after 24 hours 1a (%) [1, 17]: 51%
- Reaction composition after 24 hours 2a (%) [1, 17]: 52%
- Reaction composition after 24 hours 3a (%) [1, 17]: 36%
- Reaction composition after 24 hours 5a (%) [1, 17]: 12%
- Reaction composition after 24 hours 1a (%) [1, 18]: ≤1%
- Reaction composition after 24 hours 2a (%) [1, 18]: 24%
- Reaction composition after 24 hours 3a (%) [1, 18]: 59%
- Reaction composition after 24 hours 5a (%) [1, 18]: 18%
- Product distribution after 24 hours 2a (%) [1, 17]: 67.8%
- Product distribution after 24 hours 3a (%) [1, 17]: 17.6%
- Product distribution after 24 hours 5a (%) [1, 17]: 14.6%
- Product distribution after 24 hours 2a (%) [1, 18]: 49.4%
- Product distribution after 24 hours 3a (%) [1, 18]: 30.7%
- Product distribution after 24 hours 5a (%) [1, 18]: 19.9%
- Conversion of 1a to 3a (%) [1, 19]: 31 ± 2%
- Reaction composition at 24 hours (%) 1a [1, 19]: 1≤ %
- Reaction composition at 24 hours (%) 2a [1, 19]: 51 ± 2%
- Reaction composition at 24 hours (%) 3a [1, 19]: 34 ± 2%
- Reaction composition at 24 hours (%) 5a [1, 19]: 15 ± 3%
- Conversion of 1a to 3a (%) [1, 20]: 52 ± 3%
- Reaction composition at 24 hours (%) 1a [1, 20]: 1≤ %
- Reaction composition at 24 hours (%) 2a [1, 20]: 22 ± 2%
- Reaction composition at 24 hours (%) 3a [1, 20]: 59 ± 1%
- Reaction composition at 24 hours (%) 5a [1, 20]: 18 ± 1%
- overall conversion of 1a to vanillin 3a in the 2-step cascade ([1]; with EUGO, 5 mM substrate concentration): 50%
- pH optimum of activity toward isoeugenol ([2]; rac-isoeugenol 5 mM, buffers pH 7.0-10.5): 9.0
- cosolvent tolerance, activity toward isoeugenol ([2]; solvent screening 5, 10 and 20% v/v): tolerates a panel of cosolvents, with a preference for ethanol and DMSO
